These results are taken from patent US20200317802A1 (Merck KGaA, published 2020).

The target in test [1] is T1, recombinant human ADAMTS5 (R&D Systems cat #2198-AD) (human, UniProt Q9UNA0 262-622, limits assumed).
T1 sequence: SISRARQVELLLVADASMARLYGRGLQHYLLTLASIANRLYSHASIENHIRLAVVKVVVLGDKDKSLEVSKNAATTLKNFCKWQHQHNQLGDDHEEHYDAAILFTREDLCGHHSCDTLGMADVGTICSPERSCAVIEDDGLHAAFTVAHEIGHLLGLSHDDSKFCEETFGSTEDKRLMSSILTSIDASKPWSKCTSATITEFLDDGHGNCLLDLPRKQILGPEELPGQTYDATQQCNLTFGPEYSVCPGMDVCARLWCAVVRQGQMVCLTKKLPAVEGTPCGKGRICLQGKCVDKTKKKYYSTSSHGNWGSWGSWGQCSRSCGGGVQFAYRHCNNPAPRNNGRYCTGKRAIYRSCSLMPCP
Briefly: cell-based or functional assay.

Test [2] addresses T1, recombinant human ADAMTS5 (R&D Systems …). Briefly: SPR kinetics, Biacore T100, ADAMTS5 immobilised. The protocol:
(§1) For referencing, affinity for human ADAMTS5 was also determined. Thereto, rat and human ADAMTS5 were immobilized onto a CM5 chip via amine coupling, using EDC and NHS chemistry. Purified Nanobodies were injected for 2 minutes at different concentrations (between 1 and 1000 nM) and allowed to dissociate for 25 min at a flow rate of 45 μl/min. The kinetic constants were calculated from the sensorgrams using the BIAEvaluation software (1:1 interaction).
Background: Surface plasmon resonance follows binding to a sensor surface in real time, without labels.

In test [3] the target is T2, rat recombinant ADAMTS5 (rat, UniProt Q9R001 262-618 (mouse entry)).
T2 construct: in house, HEK293, His tag in the entry
T2 chain: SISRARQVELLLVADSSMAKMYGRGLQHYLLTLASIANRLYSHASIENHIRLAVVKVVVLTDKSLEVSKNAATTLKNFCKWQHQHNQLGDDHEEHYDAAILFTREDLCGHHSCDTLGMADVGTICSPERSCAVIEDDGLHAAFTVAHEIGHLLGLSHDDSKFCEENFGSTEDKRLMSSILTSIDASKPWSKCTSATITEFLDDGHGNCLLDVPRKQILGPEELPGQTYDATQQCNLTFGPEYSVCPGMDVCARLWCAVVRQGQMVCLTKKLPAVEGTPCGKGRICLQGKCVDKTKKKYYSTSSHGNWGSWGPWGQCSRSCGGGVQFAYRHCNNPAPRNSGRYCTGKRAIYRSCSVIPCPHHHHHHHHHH
Briefly: SPR kinetics, Biacore T100, ADAMTS5 immobilised. The method, then:
as §1

B1: Nanobody 049 (11B06 (N52S)) (VHH)
VHH: EVQLVESGGGLVQAGGSLRLSCAASGLTFRRNAMGWFRQAPGKERELLAGISWSGGTTYYVDSVKGRFTISRDNAKNTVDLQMISPKPEDTAVYYCAADGDIGTLVNDENPRYWGQGTLVTVSS
notes: N-glycosylation motif knocked out; also called construct 049
For B1, the “AlphaLISA IC50, - HSA” value in test [1] was 0.1 nM. Besides, the Kd (as a rule, a measure of binding affinity in units of concentration) turned out to be 3.5 nM in test [2] and 1.7 nM in test [3].

B2: Nanobody 093 (3F04 (N100fQ)) (VHH)
VHH: EVQLVESGGGSVQAGGSLRLSCVASGRYPMAWFRQAPGKEREFVAGVSWGGDRTYYADSVQGRFTVSRDYAKNTLYLQMNSLKPEDAAVYYCAGDPWGRLFRVKDQYSDWGQGTLVTVSS
notes: N-glycosylation motif knocked out; also called construct 093
In the case of B2, the Kd in test [2] amounted to 4.9 nM; in test [3], 5.3 nM.
